Laboratory results reported in US7414023 (dated 2008).
Bridge positions count the residues as written; N and C are the ends. Ends that are not written are not given here.

Tests used:
cathepsin G = biological target: T1, cathepsin G (human, UniProt P08311); experiment: other, IFMA
T1 chain: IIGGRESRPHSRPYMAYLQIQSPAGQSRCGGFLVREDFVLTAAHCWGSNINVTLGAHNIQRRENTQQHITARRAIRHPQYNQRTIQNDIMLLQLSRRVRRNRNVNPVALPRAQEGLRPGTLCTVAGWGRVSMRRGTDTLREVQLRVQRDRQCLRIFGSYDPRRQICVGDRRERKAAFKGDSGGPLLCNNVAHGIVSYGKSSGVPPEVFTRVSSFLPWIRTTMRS

PSA [1] = biological target: T2, PSA (human, UniProt P07288); experiment: SPR, 30 uM Zn2+
hK2 = hK2 (human, UniProt P20151); experiment: other, IFMA
PSA-ACT complex = PSA-ACT complex (human, UniProt P07288); experiment: other, IFMA
PSA-API complex = PSA-API complex (human, UniProt P07288); experiment: other, IFMA
trypsin = experiment: other, IFMA
PSA [2] = biological target: T2, PSA; experiment: competition, IFMA with free PSA
PSA [3] = biological target: T2, PSA; experiment: SPR, 0 uM Zn2+
PSA [4] = biological target: T2, PSA; experiment: SPR, 10 uM Zn2+
PSA [5] = biological target: T2, PSA; experiment: SPR, 1 uM Zn2+
PSA [6] = biological target: T2, PSA; experiment: SPR
PSA [7] = biological target: T2, PSA; experiment: other, IFMA

hK2, sequence (P20151 25-261): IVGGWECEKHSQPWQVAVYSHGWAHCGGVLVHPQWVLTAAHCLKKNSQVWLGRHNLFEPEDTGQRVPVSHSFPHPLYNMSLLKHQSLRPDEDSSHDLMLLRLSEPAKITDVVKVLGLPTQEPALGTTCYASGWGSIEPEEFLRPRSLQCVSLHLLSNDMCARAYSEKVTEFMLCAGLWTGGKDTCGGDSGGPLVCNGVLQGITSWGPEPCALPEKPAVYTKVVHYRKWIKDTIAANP

CVAYCIEHHCWTC (disulfide 1-13, 5-10; also: GST fusion, site not given here) [GST-C-4]
binding result (cathepsin G): no binding | Kd (PSA [1]): 0.86 µM | binding result (hK2): no binding | binding result (PSA-ACT complex): no binding | binding result (PSA-API complex): no binding | binding result (trypsin): no binding | IC50 (PSA [2]): 0.0007 µM

CVFAHNYDYLVC (disulfide 1-12 (inferred); also: GST fusion, site not given here) [GST-B-2]
Kd (PSA [3]): 3.5 µM | binding result (cathepsin G): no binding | Kd (PSA [4]): 0.6 µM | Kd (PSA [5]): 3.1 µM | Kd (PSA [6]): 3.5 µM | Kd (PSA [1]): 0.8 µM | binding result (hK2): no binding | binding result (PSA-ACT complex): no binding | binding result (PSA-API complex): no binding | binding result (trypsin): no binding | IC50 (PSA [2]): 0.001 µM

CVFTSDYAFC (disulfide 1-10 (inferred); also: GST fusion, site not given here) [GST-A-1]
Kd (PSA [3]): 7.8 µM | binding result (cathepsin G): no binding | Kd (PSA [4]): 1.4 µM | Kd (PSA [5]): 2.6 µM | Kd (PSA [6]): 7.8 µM | Kd (PSA [1]): 1 µM | binding result (hK2): no binding | binding result (PSA-ACT complex): no binding | binding result (PSA-API complex): no binding | binding result (trypsin): no binding | IC50 (PSA [2]): 0.0033 µM

CLSTCAQSCRISC (also: GST fusion, disulfide pairing not given here) [GST-D-1]
binding result (PSA [7]): no binding
